According to US20050268353A1:

What was measured:
[1] = target: Midgut brush border membranes of Helicoverpa armigera larvae; assay: 125I-labelled HaSV particles with midgut brush border membranes boiled before the incubation (control)
[2] = target: Midgut brush border membranes of Helicoverpa armigera larvae; assay: 125I-labelled HaSV particles with midgut brush border membranes preincubated 1 h with unlabelled HaSV (self-competition)
[3] = target: Midgut brush border membranes of Helicoverpa armigera larvae; assay: 125I-labelled HaSV particles (103,000 cpm) incubated 1 h with midgut brush border membranes, pelleted, washed three times, gamma counting

## Helicoverpa armigera stunt virus (HaSV) particles (from UniProt Q82462 1-647)
[1]
  cpm remaining with the membranes after washing: 1700 cpm
[2]
  cpm remaining with the membranes after washing: 2100 cpm
[3]
  cpm remaining with the membranes after washing: 8500 cpm
